# Measurements: US20210071139A1
# Where “and” joins values, the source holds several entries; their conditions need not be identical. Equal entries are not always repeated.
# Molecular target: TOX (UniProt Q66JW3)
# Test: TOX co-IP from EL4 nuclear extract, LC-MS/MS, MiST
# Chain of TOX (Q66JW3 whole entry): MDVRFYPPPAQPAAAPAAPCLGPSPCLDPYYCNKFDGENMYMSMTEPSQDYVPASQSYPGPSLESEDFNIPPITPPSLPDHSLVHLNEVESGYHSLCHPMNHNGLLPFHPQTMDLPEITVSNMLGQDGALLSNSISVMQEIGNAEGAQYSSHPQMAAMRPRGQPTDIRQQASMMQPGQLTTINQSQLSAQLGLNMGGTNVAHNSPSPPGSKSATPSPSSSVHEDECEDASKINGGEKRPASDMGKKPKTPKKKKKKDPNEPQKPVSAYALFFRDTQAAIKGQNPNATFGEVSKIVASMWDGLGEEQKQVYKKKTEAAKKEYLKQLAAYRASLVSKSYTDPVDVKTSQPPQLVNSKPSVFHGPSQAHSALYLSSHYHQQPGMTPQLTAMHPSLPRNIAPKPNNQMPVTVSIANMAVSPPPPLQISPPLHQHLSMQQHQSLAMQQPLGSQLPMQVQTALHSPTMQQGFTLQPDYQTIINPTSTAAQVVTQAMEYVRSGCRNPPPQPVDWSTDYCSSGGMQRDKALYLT
# Chain of Tmem160 (Q9D938 97-188): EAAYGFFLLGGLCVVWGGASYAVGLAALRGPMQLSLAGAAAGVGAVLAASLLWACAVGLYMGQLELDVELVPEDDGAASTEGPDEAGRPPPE
# Chain of Utp11l (Q9CZJ1 whole entry): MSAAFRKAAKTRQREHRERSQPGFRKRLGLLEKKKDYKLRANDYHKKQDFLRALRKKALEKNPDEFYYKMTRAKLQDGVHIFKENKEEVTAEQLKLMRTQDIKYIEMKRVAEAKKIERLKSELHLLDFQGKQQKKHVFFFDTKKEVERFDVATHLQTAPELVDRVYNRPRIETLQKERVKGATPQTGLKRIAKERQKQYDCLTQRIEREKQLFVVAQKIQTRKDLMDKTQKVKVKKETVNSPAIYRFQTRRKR
Substance,Abundance,MiST Score,Reproducibility,Specificity
Ap3m1 (from UniProt Q9JKC8 1-418),1.64e-05,0.829,0.982,0.767
Arhgef2 (from UniProt Q60875 1-985),1.33e-05,0.847,0.943,0.811
Atxn2 (from UniProt O70305 1-1285),2.51e-06,0.831,0.831,0.838
Ccnk (from UniProt O88874 1-554),1.18e-05,0.846,0.975,0.795
Cdc16 (from UniProt Q8R349 1-620),4.84e-06,0.847,0.524,1
Cnot1 (from UniProt Q6ZQ08 1-2375),5.57e-07,0.85,0.931,0.821
Copg1 (from UniProt Q9QZE5 1-874),3.36e-06,0.844,0.514,1
Cpt1a (from UniProt P97742 2-773),7.71e-07,0.847,0.522,1
Csrp1 (from UniProt P97315 1-193),5.52e-05,0.828,0.966,0.773
Ddx23,7.9e-06,0.836,0.837,0.843
Dhx29 (from UniProt Q6PGC1 1-1365),5.88e-07,0.847,0.928,0.818
Dnajb6 (from UniProt O54946 1-365),2.48e-05,0.837,0.944,0.796
Dnajb11 (from UniProt Q99KV1 23-358),2.91e-05,0.839,0.783,0.872
Gm20517; Med20 (from UniProt Q9R0X0 1-212),2.2e-05,0.831,0.472,1
Gnl2 (from UniProt Q99LH1 1-728),7.98e-06,0.843,0.894,0.827
Hsd17b10 (from UniProt O08756 2-261),1.27e-05,0.857,0.557,1
Lsg1 (from UniProt Q3UM18 1-644),2.9e-06,0.837,0.886,0.822
Mark2 (from UniProt Q05512 1-776),2.81e-06,0.842,0.891,0.826
Mcm5 (from UniProt P49718 2-734),4.18e-06,0.85,0.757,0.9
Mrpl3 (from UniProt Q99N95 41-348),7.04e-05,0.857,0.555,1

Substance,Abundance,MiST Score,Reproducibility,Specificity
Nob1 (from UniProt Q8BW10 1-403),2.4e-05,0.84,0.955,0.796
Nop2 (from UniProt Q922K7 1-793),8.3e-05,0.844,0.981,0.789
Nop14 (from UniProt Q8R3N1 1-860),1.27e-06,0.84,0.501,1
Nsf (from UniProt P46460 1-744),2.87e-06,0.838,0.808,0.859
Orc1 (from UniProt Q9Z1N2 1-840),1.58e-06,0.843,0.866,0.839
Orc3 (from UniProt Q9JK30 1-715),7.41e-07,0.848,0.528,1
Rbm28 (from UniProt Q8CGC6 2-750),8.77e-06,0.855,0.958,0.815
Rrbp1 (from UniProt Q99PL5 1-1605),1.36e-06,0.834,0.675,0.913
Samd1 (from UniProt D3YXK1 1-519),2.47e-06,0.829,0.886,0.811
Skap2 (from UniProt Q3UND0 1-358),4.76e-06,0.845,0.516,1
Sorbs1 (from UniProt Q62417 1-1290),1.52e-05,0.829,0.997,0.76
Sptbn1 (from UniProt Q62261 2-2363),1.19e-05 and 1.09e-05,0.84,0.996,0.777
Sugp1 (from UniProt Q8CH02 1-643),7.71e-06,0.832,0.906,0.807
Tmem160,3.49e-05,0.846,0.94,0.812
Tmem214 (from UniProt Q8BM55 2-687),1.26e-06,0.85,0.532,1
Trrap (from UniProt Q80YV3 1-2565),9.36e-08,0.847,0.524,1
Utp11l,4.22e-05,0.856,0.553,1
Wdr82 (from UniProt Q8BFQ4 1-313),0.00013,0.846,0.951,0.807
Zcchc8 (from UniProt Q9CYA6 2-709),2.87e-06,0.834,0.483,1
Zmym4 (from UniProt A2A791 2-1549),1.92e-06,0.841,0.503,1

# Molecular target: TOX (UniProt Q66JW3)
# Test: anti-TOX IP from EL4 nuclear extract, LC-MS/MS, MiST vs IgG control
Substance,Abundance,MiST Score,Reproducibility,Specificity
Abcf1 (from UniProt Q6P542 1-837),1.12e-05,0.76,0.747,0.773
Abcf2 (from UniProt Q99LE6 1-628),2.89e-05,0.756,0.917,0.69

# Molecular target: TOX (UniProt Q66JW3)
# Test: anti-TOX IP from EL4 nuclear extract, LC-MS/MS, MiST analysis
Substance,Abundance,MiST Score,Reproducibility,Specificity
Racgap1 (from UniProt Q9WVM1 1-628),8.29e-06,0.793,0.868,0.765
Rbm15 (from UniProt Q0VBL3 1-962),8.04e-06,0.776,0.987,0.687
Rcc1 (from UniProt Q8VE37 2-421),2.79e-05,0.796,0.986,0.717
Rcc2 (from UniProt Q8BK67 1-520),3.74e-05,0.79,0.958,0.722
Sin3a (from UniProt Q60520 1-1274),5.49e-06,0.773,0.284,1
Slc25a3 (from UniProt Q8VEM8 46-357),6.71e-05,0.778,0.975,0.696
Slc25a4 (from UniProt P48962 2-298),0.000186,0.765,0.959,0.684
Slc25a11 (from UniProt Q9CR62 2-314),2.29e-05,0.788,0.956,0.72
Smarca4 (from UniProt Q3TKT4 1-1613) (enzyme),6.52e-07,0.786,0.594,0.879
Srp72,3.55e-05,0.765,0.872,0.723
Srrm2 (from UniProt Q8BTI8 1-2703),1.1e-06,0.769,0.861,0.734
Tcof1 (from UniProt O08784 1-1320),0.000142,0.77,0.984,0.681
Terf2 (from UniProt O35144 1-541),6.86e-06,0.79,0.994,0.705
Thoc1 (from UniProt Q8R3N6 1-657),9.29e-06,0.775,0.999,0.681
Umps (from UniProt P13439 1-481) (enzyme),2.41e-06,0.766,0.792,0.761
Usp10 (from UniProt P52479 2-792) (enzyme),3.26e-06,0.793,0.613,0.881
Wdr36,3.46e-06,0.785,0.886,0.747
Xrcc5 (from UniProt P27641 1-732),2.92e-05,0.775,0.737,0.799
Xrn2 (from UniProt Q9DBR1 1-951) (enzyme),8.55e-06,0.787,0.804,0.787
Ywhah (from UniProt P68510 2-246),6.28e-05,0.774,0.819,0.761
Zw10 (from UniProt O54692 2-779),2.83e-06,0.767,0.582,0.857
